The record followed here is paper PMC11650716, “Identification of a robust bacterial pyranose oxidase that displays an unusual pH dependence” (The Journal of Biological Chemistry, 2024).

The target of assay [1] is T1, OPOx (pyranose oxidase from Oscillatoria princeps) (Oscillatoria princeps, UniProt A0ABF7PQA8).
T1 construct: full length, 534 residues (533 also printed), N-terminal His-tag, pBAD vector, E. coli NEB 10-beta; synthetic codon-optimised gene; 61 kDa with tag; homotetramer
T1 sequence (A0ABF7PQA8 1-533): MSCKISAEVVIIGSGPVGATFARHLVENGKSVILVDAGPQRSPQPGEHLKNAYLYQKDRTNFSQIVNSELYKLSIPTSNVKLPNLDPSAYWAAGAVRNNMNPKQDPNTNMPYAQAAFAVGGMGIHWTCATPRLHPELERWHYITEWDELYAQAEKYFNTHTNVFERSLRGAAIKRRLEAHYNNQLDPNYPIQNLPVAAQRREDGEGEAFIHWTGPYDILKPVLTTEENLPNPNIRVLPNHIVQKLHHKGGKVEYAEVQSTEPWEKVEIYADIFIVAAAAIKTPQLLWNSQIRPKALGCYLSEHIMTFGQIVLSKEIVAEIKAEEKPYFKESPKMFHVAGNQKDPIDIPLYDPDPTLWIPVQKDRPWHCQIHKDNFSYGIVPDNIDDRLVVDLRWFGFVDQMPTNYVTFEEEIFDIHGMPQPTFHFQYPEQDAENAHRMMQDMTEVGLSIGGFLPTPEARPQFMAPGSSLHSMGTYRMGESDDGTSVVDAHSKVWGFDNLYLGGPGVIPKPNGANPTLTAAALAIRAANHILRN
The assay can be described thus: X-ray crystal structure, […] Å. The format is binding. The conditions noted are these: covalent; 8α-methyl of FAD bound to His125 NE2; crystals at pH 9.2.

Assay [2] has as its target pyranose oxidase from Oscillatoria princeps (OPOx) (Oscillatoria princeps). The experiment in a line: dynamic light scattering + SEC; DLS: about 15 μM OPOx in 50 mM citrate buffer (pH 5.5), 294 K; gel permeation chromatography (Fig. S3).
Assay [3] has the same target. The assay can be described thus: crystal structure; X-ray, 2.64 Å, space group P2(1)2(1)2(1), tetramer in the asymmetric unit; crystals with sodium sulfate as additive at pH 9.2. A low-resolution C222(1) crystal form has a dimer in the asymmetric unit and forms the tetramer through a crystallographic two-fold axis.

Consider `Cc1cc2nc3c(=O)[nH]c(=O)nc-3n(C[C@H](O)[C@H](O)[C@H](O)COP(=O)(O)OP(=O)(O)OC[C@H]3O[C@@H](n4cnc5c(N)ncnc54)[C@H](O)[C@@H]3O)c2cc1C` [FAD], for which the “X-ray crystal structure, 2.64 Å” value in assay [1] is “crystal structure of OPOx with a covalently bound FAD cofactor per subunit”.

Take “pyranose oxidase from Oscillatoria princeps (OPOx) (enzyme)”: the stoichiometry N in assay [2] and in assay [3] was 4 each time.

A word on the stoichiometry N: it is a count of units in the complex or per binding partner.
